Experimental data from patent publication US20250042994A1 (HAINAN SIMCERE ZAIMING PHARMACEUTICAL, published 2025).
Where a chain is given by its changes, count along the chain named.

B1: F5.7.1 (antibody, human IgG1, V domains shown)
VH: QVTLKESGPGILQPSQTLSLTCSFSGFSLTTFGMGVGWIRQPSGKGLEWLTHIWWDDDKYYNPALKSRLTISKDTSKNQVFLRIANVDTADTATYYCARVITTGVPYFDYWGQGTTLTVSS
VL: ENVLTQSPAIMSASPGEKVTMTCRASSSVSSSYLYWYQQKSGASPKLWISSTSNLASGVPARFSGSGSGTSYSLTINSVEAEDAATYYCQQYSGYPWTFGGGTKLEIK
notes: human-murine chimeric antibody, human IgG1
B2: F4.125.12 (antibody, human IgG1, V domains shown)
VH: EVKLVESGGGLVQPGGSLKLSCAASGFTFSTYTMSWVRQTPEKRLEWVAFISSGGGHINYPDTVKGRFTISRDNAKNTLYLQMSSLKSEDTAMYYCARHSYWFFDVWGAGTTVTVSS
VL: DVQITQSPSYLAASPGETITINCRASKNIDTYLAWYQEKPGKTNKLLIYSGSTLQSGIPSRFRGGGSGTDFTLTICSLEPEDFAMYYCQQHNEYPLTFGAGTKLELK
notes: as for B1
B3: F4.145.9 (antibody, human IgG1, V domains shown)
VH: EVQLVESGGGLVKPGGSLKLSCAAAGFAFSSYDMSWVRQIPEKRLEWVAYISAGGGNTYFLDTVKGRFTISRDHAKNTLSLQMSSLKSEDTAMYFCVRHGDYYRYFYAMDYWGQGSSVTVSS
VL: DIVMTQSHKFMSTSVGDRVSITCKASQDVGTAVAWSQQKPGQSPKLLIYWASTRHTGVPDRFTGSGSGTDFTLTISNVQSEDLADYFCQQFVTYPYTFGGGTKLEIK
notes: as for B1
B4: F4.180.1 (antibody, human IgG1, V domains shown)
VH: EVQLQQSAPELVKPGASVKMSCKTSGYTFTENIIHWVKQTHGKSLEWIGGINPDNGGTSYHQKFKGRTTLTIDKSSSTAYMELRSLTSDDSAVFFCARQAPLYWYFDIWGAGTTVTVSS
VL: DIVLTQSPASLAVSLGQRATISCRASESVDSYGNSLMHWFQQKPGQPPRLLIYRASNLESGIPARFSGSGSRTDFTLTITPVEADDVATYYCQQSNEDPWTFGGGTKLEIK
notes: as for B1
B5: F3.23.10 (antibody, human IgG1, V domains shown)
VH: EFQLQQSGPELVKPGASVKISCKASDYSFTDYNMNWVKQSNGASLEWIGIINPNFGSTSYNQKFKGKATLTVDQSSSTAFMQLNSLTSEDSAVYYCARSEYYGSSGFAYWGQGTLVTVSA
VL: DVVVTQTPLSLPVSFGDQVSISCRSSQSLVNSYGNTYLSWYLHKPGQSPQLLIYGISNRFSGVPDRFSGSGSGTDFTLKITTIKPEDLGMYYCLQGTHQPWTFGGGTKLEIK
notes: as for B1
B6: F6.2.9 (antibody, human IgG1, V domains shown)
VH: QVQLQQSGAELVKPGASVKISCKASGYAFSSYWMNWVKQRPGKGLEWIGQIYPGDGDTNYNGKFKGKATLTADKSSSTGYMQLSSLTSEDSAVYFCARSRITSVVDWYFDVWGTGTTVTVSS
VL: QIVLSQSPAILSASPGEKVTMTCRASSSVSYMHWYQQKPGSSPKPWIYATSNLASGVPARFSGSGSGTSYSLTISRVEAEDAATYYCQQWSSNPPTFGAGTKLELK
notes: as for B1
B7: F4.15.9 (antibody, human IgG1, V domains shown)
VH: QVQLQQSGPELVKPGASVKISCKASGYAFSSSWMNWLKQRPGQGLEWIGRIYPGDGDTNYNGKFKGKATLTADESSSTAYMQLSSLTSVDSAVYFCARGITTIITIAWFASWGQGTLVTVSA
VL: B6 VL with A9T, A59P, E78G, N93D, P95W, A99G, L105I
notes: as for B1
B8: F6.5.20 (antibody, human IgG1, V domains shown)
VH: QVQLQQPGAELVKPGASVKLSCKASGYTFTSYWMQWVKQRPGQGLEWIGEIDPSDSYTNYNQKFKGKASLTVDTSSSTAYMQLSSLTSEDSAVYYCARWGLLRNYYVMDYWGQGTSVTVSS
VL: EIVLTQSPTTMAASPGEKITITCSASSSISSNYLHWYQQKPGFSPKLLIYRTSNLASGVPARFSGSGSGTSYSLTIGTMEAEDVATYYCQQGSSIPRMLTFGAGTKLELK
notes: as for B1

The binders below were run against T1, human CD19 on Raji cells (human, UniProt P15391 20-556) (assay: FACS on Raji cells).
T1 construct: whole, on cells
T1 sequence (looked up): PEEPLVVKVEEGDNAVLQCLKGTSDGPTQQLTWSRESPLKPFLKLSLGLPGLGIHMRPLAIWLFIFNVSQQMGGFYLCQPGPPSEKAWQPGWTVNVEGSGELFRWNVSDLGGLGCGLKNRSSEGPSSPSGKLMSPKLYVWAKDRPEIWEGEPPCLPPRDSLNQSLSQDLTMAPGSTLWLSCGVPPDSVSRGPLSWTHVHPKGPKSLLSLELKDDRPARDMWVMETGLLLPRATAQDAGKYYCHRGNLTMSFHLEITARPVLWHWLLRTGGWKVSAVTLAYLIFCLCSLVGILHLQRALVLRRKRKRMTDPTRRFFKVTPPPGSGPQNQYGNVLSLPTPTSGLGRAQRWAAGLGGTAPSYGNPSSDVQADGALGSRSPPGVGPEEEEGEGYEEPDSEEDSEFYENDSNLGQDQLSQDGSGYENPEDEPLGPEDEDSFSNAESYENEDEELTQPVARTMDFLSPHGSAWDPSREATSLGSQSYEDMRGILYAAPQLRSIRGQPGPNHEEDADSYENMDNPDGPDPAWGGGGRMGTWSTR
Description: (§1) The desired cells were scale-up cultured in a T-75 cell culture flask to the logarithmic growth phase. For the adherent cell CHO-K1, the medium was aspirated, the cells were washed 2 times with a PBS buffer, and then digested with trypsin. After the digestion was terminated, the cells were washed 2 times with a PBS buffer; and for suspension cell Raji, the supernatant of the medium was discarded by directly centrifugation, and the cell pellet was washed 2 times with PBS. After counting the cells in the previous step, the cell pellet was resuspended with [PBS+2% (w/w) BSA] blocking solution to 2×10⁶ cells/ml, and added to a 96-well FACS reaction plate at 50 μl/well, and then the sample to be tested was added at 50 μl/well, and incubated on ice for 2 h. The obtained mixture was centrifuged and washed 3 times with a PBS buffer. […] The obtained mixture was centrifuged and washed 5 times with a PBS buffer, and FACS (FACS Canto™, purchased from BD Company) was used for detection and result analysis. Data analysis was performed by software (FlowJo) to obtain the mean fluorescence intensity (MFI) of the cells. And then software (GraphPad Prism8) was used for analysis, data fitting, and EC50 value calculation. […] The same method was used to detect the binding of the chimeric antibodies to endogenous CD19-negative cells, MoLT4 cells (purchased from ATCC, CRL-1582), and CHO-K1 cells.

EC50	Maximum mean fluorescence intensity	Binder
1.13 nM	28700	B1
0.51 nM	27100	B2
0.78 nM	20000	B3
0.96 nM	23700	B4
4.77 nM	14900	B5
0.98 nM	21500	B6
0.71 nM	31300	B7
0.17 nM	28600	B8

These binders were tested against T2, human CD19 on CHO-K1-human CD19 cells (human, UniProt P15391 20-556) (assay: FACS on CHO-K1-human CD19 cells).
T2 construct: whole, on cells; also called CHO-K1-human CD19-2C8
T2 sequence (looked up): T1 sequence (looked up)
Description: as §1

EC50	Maximum mean fluorescence intensity	Binder
1.54 nM	56200	B1
0.48 nM	51800	B2
0.84 nM	48500	B3
1.24 nM	49600	B4
3.59 nM	50400	B5
–	10300	B6
0.17 nM	20500	B7
~0.17 nM	48300	B8

Each binder was assayed against T3, monkey CD19 on HEK293T-monkey CD19 cells (monkey) (assay: FACS on HEK293T-monkey CD19 cells).
T3 construct: whole, on cells
Method: as §1, with “After” for “The desired cells were scale-up cultured in a T-75 cell culture flask to the logarithmic growth phase. For the adherent cell CHO-K1, the medium was aspirated, the cells were washed 2 times with a PBS buffer, and then digested with trypsin. After”
HEK293T-monkey CD19 cells were subjected to FACS detection and data analysis according to the method in example 5.2. […] The same method was used to detect binding of the chimeric antibodies to HEK293T cells.

Maximum mean fluorescence intensity	EC50	Binder
938	–	B1
4080	–	B2
108	–	B3
94	–	B4
77	–	B5
2130	86 nM	B6
14800	–	B7
531	–	B8
